Experimental data published in patent US20230257444A1, “FUSION PROTEIN AND COMBINATIONS THEREOF” (Agency for Science, Technology and Research, priority 2020, published 2023).

Columns and labels:
FcRn = biological target: T1, FcRn (Homo sapiens, UniProt P55899); test: Surface plasmon resonance: binding to immobilised Fc receptor; settings: SPR
T1 construct: soluble ectodomains of FcR from R&D Systems; purchased R&D Systems 8639-FC-050
Excerpt: (§1) A BIAcore T200 SPR Biosensors (GE Healthcare) was used to assay the interaction of soluble ectodomains of FcR from R&D Systems with hDectin1-Fc and IgG1. Amine coupling via N-hydroxysuccinimide ester was formed on a CM5 sensor chip surface according to a procedure recommended by the manufacturer. Ectodomains were immobilized at acidic pH, resulting in the following densities: FcγRI (#1257-FC-050): 1919 RU, FcγRIIa (#1330-CD-050/CF):1766 RU, FcγRIIb/c (#1875-CD-050): 1972 RU, FcγRIIIa (#4325-FC-050): 2275 RU, FcγRIIIb (#1597-FC-050/CF): 2393 RU, FcRn (#8639-FC-050): 2836. A range of hDectin1-Fc/IgG1 concentrations was injected into flow cells at a flow rate of […], with a contact and dissociation time of 300 and 900 seconds, respectively. After each assay cycle, the sensor chip surface was regenerated using 10 mM NaOH. Binding response was recorded as resonance units (RU; 1 RU=1 pg/mm^2) continuously, with background binding automatically subtracted. Due to the polyclonal nature of the hDectin1-Fc/IgG1 recombinant proteins used, kinetic constants (kon, koff, t1/2) were not determined, and the KD was calculated by analyzing the concentration-dependence of the steady-state signal reached at the end of the injection using BIA evaluation version 3 software (GE Healthcare) and Scrubber version 2 software (BioLogic Software, Campbell, Australia). The steady-state response was plotted against the concentration of hDectin1-Fc/IgG1 and fitted using Origin software.
(§2) Antibody mediated immune activation depends on the strength of binding and affinity of the Fc to the various Fcγ receptors. Binding to the neonatal receptor FcRn is also important for the half-life in serum and the transcytosis across endothelial cells into various tissues. Surface plasmon resonance was used to evaluate the binding of the Immunoglobulin G's Fc of hDectin1-Fc to the various Fc receptors (FcγRI, FcγRIIa, FcγRIIb, FcγRIIIa, FcγRIIIb and FcRn) present on immune cells by flowing free hDectin1-Fc of various concentrations over immobilised Fc receptors (FIG. 11A-F). […] High affinity FcγRI(CD64) is expressed on macrophages, monocytes and neutrophils and low affinity FcγRIIIa (CD16a) is expressed on natural killer cells, monocytes, macrophages and neutrophils. Both CD64 and CD16a activating receptors have Immunoreceptor Tyrosine based Activation Motif (ITAM) signalling domain. FcγRI strongly binds IgG opsonized targets to trigger phagocytosis and a proinflammatory response of TNFα, IFNγ and production of oxidative species. FcγRIIIa likewise activate degranulation, phagocytosis, and oxidative burst.

FcγRI = biological target: T2, FcγRI (Homo sapiens, UniProt P12314); test: as above; settings: SPR
T2 construct: soluble ectodomains of FcR from R&D Systems; purchased R&D Systems 1257-FC-050
Excerpt: as §1, §2

FcγRIIa = biological target: T3, FcγRIIa (Homo sapiens, UniProt P12318, H167R); test: as above; settings: SPR, steady state
T3 construct: soluble ectodomains of FcR from R&D Systems; purchased R&D Systems 1330-CD-050/CF
T3 sequence (P12318 34-217 H167R limits assumed): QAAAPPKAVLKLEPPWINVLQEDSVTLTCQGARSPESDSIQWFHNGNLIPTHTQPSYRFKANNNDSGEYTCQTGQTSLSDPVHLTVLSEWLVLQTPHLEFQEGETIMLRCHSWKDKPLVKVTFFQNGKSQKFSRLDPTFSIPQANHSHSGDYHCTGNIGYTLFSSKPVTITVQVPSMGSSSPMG
Excerpt: as §1, §2

FcγRIIb = biological target: T4, FcγRIIb (Homo sapiens, UniProt P31994); test: as above; settings: SPR, steady state
T4 construct: soluble ectodomains of FcR from R&D Systems; purchased R&D Systems 1875-CD-050
T4 sequence (P31994 43-217 limits assumed): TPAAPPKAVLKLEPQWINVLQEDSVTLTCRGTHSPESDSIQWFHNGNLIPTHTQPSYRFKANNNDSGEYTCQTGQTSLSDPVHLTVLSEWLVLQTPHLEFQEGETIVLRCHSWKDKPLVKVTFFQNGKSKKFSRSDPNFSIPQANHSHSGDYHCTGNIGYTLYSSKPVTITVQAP
Excerpt: as §1, §2

FcγRIIIa = biological target: T5, FcγRIIIa (Homo sapiens, UniProt P08637, F176V); test: as above; settings: SPR
T5 construct: soluble ectodomains of FcR from R&D Systems; purchased R&D Systems 4325-FC-050
Excerpt: as §1, §2

FcγRIIIb = biological target: T6, FcγRIIIb (Homo sapiens, UniProt O75015); test: as above; settings: SPR, steady state
T6 construct: soluble ectodomains of FcR from R&D Systems; purchased R&D Systems 1597-FC-050/CF
Excerpt: as §1, §2

SC5314 Candida albicans = test: In vitro combination therapy checkerboard dilution assay (Amphotericin B & hDectin1-Fc) with human primary macrophages; assay type: cell-based; settings: between 0 μg/ml and 100 µg/ml hDectin1-Fc, 24 hours
Experimental: Human peripheral blood CD14+ monocytes were cultured at 1×10^6 cells/mL in 5 mL of ImmunoCult™-SF Macrophage Differentiation Medium with Human Recombinant M-CSF at 50 ng/ml in a T-25 flask at 37° C. in a 5% CO2 incubator. On Day 4, 2.5 mL of fresh ImmunoCult™-SF Macrophage Differentiation Medium was added to the flask. On Day 6, M1 activation was initiated with the addition of 50 ng/mL IFN-γ. On Day 8, the macrophages were treated with ACCUTASE and scrapped from the flask. The cells were centrifuged and resuspended in RPMI medium with 10% FBS and seeded into 96 well plates at 10^5 cells/well. The co-culture assay involves the addition of 10^5 cells/well of SC5314 Candida albicans cells to wells containing 10^5 cells/well of human primary macrophages cells with final concentration of hDectin1-Fc at 0, 1, 10 or 100 g/ml and varying concentration of Amphotericin B in a checkerboard dilution assay format in a 96 well plate. The assay was incubated for 24 hr at 37° C. in a 5% CO2 atmosphere incubator and the MIC and MFC determined visual using a Nikon Eclipse Ti-E inverted microscope.
10′ Candida albicans cells and 10′ human primary macropahges were seeded per well in a checkerboard dilution assay of Amphotericin B with the respective concentration of hDectin1-Fc (0, 10, 100 μg/ml) and incubated for 24 hours at 37° C.

T1 sequence (P55899 24-297 limits assumed): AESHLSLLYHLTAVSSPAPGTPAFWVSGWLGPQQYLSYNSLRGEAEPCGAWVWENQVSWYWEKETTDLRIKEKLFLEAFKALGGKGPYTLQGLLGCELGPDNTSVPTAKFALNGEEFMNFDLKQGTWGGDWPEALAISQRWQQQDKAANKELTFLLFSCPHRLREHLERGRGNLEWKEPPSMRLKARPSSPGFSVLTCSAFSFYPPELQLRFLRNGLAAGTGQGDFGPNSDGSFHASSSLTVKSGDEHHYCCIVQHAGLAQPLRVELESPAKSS
T1 sequence (P61769 21-119 partner): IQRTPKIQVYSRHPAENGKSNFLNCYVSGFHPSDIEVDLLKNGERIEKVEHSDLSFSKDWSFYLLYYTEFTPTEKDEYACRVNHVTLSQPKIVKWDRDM
T2 sequence (P12314 16-292 limits assumed): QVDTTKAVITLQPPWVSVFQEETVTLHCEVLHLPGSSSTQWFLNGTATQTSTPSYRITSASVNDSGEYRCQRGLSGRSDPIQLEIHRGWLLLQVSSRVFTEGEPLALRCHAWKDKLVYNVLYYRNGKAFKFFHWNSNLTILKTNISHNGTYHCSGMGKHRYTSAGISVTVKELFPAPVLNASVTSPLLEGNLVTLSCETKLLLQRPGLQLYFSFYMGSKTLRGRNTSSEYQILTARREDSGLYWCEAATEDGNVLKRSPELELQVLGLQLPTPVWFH
T5 sequence (P08637 17-208 F176V limits assumed): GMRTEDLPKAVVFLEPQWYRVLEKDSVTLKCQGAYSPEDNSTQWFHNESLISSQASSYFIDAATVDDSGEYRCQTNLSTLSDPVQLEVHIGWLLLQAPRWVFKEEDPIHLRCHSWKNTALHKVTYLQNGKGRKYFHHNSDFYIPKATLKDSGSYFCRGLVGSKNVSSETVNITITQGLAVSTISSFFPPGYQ
T6 sequence (O75015 17-200 limits assumed): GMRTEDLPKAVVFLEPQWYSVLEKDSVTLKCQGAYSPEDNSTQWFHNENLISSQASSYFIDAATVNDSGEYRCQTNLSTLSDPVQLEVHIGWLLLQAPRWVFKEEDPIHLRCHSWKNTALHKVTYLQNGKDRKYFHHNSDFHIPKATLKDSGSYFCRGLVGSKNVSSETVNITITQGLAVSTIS

## hDectin1-Fc: soluble dimeric fusion protein: human Dectin-1 receptor polypeptide (aa 73-247) fused to human IgG1 Fc via hinge; SEQ ID NO: 5
FcRn
  KD for FcRn compared with Herceptin: moderately weaker binding
FcRn; steady state
  binding to FcRn (Binding Constant KD screen): able to interact with and bind to
FcγRI
  KD for FcγRI compared with Herceptin: moderately weaker binding
FcγRI; steady state
  binding to FcγRI (Binding Constant KD screen): able to interact with and bind to
FcγRIIa
  binding to FcγRIIa (Binding Constant KD screen): bind to FcγRI, FcγRIIIa and FcRn only
FcγRIIb
  binding to FcγRIIb (Binding Constant KD screen): bind to FcγRI, FcγRIIIa and FcRn only
FcγRIIIa
  KD for FcγRIIIa compared with Herceptin: moderately weaker binding
FcγRIIIa; steady state
  binding to FcγRIIIa (Binding Constant KD screen): able to interact with and bind to
FcγRIIIb
  binding to FcγRIIIb (Binding Constant KD screen): bind to FcγRI, FcγRIIIa and FcRn only
SC5314 Candida albicans
  reduction in MFC of Amphotericin B: ~45%
